± gives the uncertainty stated by the source.

A short description of this data set: amyloid nucleation score (Sup35N fusion, yeast selection) (log enrichment); library NNK3; higher = more nucleation; inactive = no reads after selection. In a few lines: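 Sup35N fusions to peptides of 20 random codons were expressed in psi-negative yeast, induced 24 hours with 100 μM copper sulfate, and grown 7 days at 30°C on medium lacking adenine and uracil. Input and output plasmid inserts were sequenced by Illumina. The nucleation score is the DiMSum log enrichment of output over input reads, centred on the mode score of non-aggregating sequences. Sequences with under 100 input reads were excluded.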
As for SRCPMADCMRKPRGGCSVGR, the amyloid nucleation score result was “inactive”.
As for SRDFKIGCWLKIRSVIDPVW, the entry is “inactive”.
For SREVSLLKWMVIILCLW, the amyloid nucleation score result is “inactive”.
In the case of SRFGMHKDTKMWSSRCRCVR, the amyloid nucleation score result was “inactive”.
As to SRFKFTAESLISVTVERLFL, the amyloid nucleation score was 0.626 ± 0.21.
SRFNMFNLS had an amyloid nucleation score of 0.163 ± 0.34.
In the case of SRGEKNSNFTWTNDFDFFRV, the amyloid nucleation score result was “inactive”.
Turning to SRHTICHKQNSCRKVLSPPH, the amyloid nucleation score result is “inactive”.
On to SRKVYEPKVPLAVSGCRMNV, for which the amyloid nucleation score result is “inactive”.
As for SRLNWSRRWSLVSQNARRTS, the amyloid nucleation score entry is “inactive”.
Consider SRNLPVLTYLFLVKKWEWYP, for which the amyloid nucleation score result is “inactive”.
SRNPYLYQIHVYKVTGFLCC came in with an amyloid nucleation score of 2.51 ± 0.062.
As for SRPVVRVINYYELGHIKVMS, the entry is “inactive”.
Take SRSPNFQKFLHCMTTSN: the amyloid nucleation score entry is “inactive”.
As for SRTSYYMPTIPCMMPMN, the entry is “inactive”; as for SRVGGISC, “inactive”.
SRVLILM: the amyloid nucleation score entry was “inactive”.
Regarding SRVRNDWYRVKVMGANVVGY, the amyloid nucleation score entry is “inactive”.
For the substance SRWIGYSFSGGSGGFVGRKA, the amyloid nucleation score result was “inactive”.
As for SRWVIGHVNTGSGGLESDKR, the amyloid nucleation score entry is “inactive”.
Consider SRYIRGTLCRAVSVNRPHVH, for which the amyloid nucleation score result is “inactive”.
Under SSAELV stands “inactive”; under SSAYHSHDSSRTKRNRSGRM, “inactive”.
Take SSCKWLFTSSHPSHPEAS: the amyloid nucleation score entry was “inactive”.
In the case of SSCMAFIMGWKYITMD, the amyloid nucleation score entry is “inactive”.
Take SSDCMDDRCCDNCDSSRLLW: the amyloid nucleation score entry was “inactive”.
For SSFGFKAK, the amyloid nucleation score result was “inactive”.
SSFLWTVWGFSNNPCCSSVA displayed an amyloid nucleation score of 2.46 ± 0.051.
Turning to SSFTKLPFL, the amyloid nucleation score result was “inactive”.
Consider SSGHMICIYYQLVHIIVRLC, for which the amyloid nucleation score result was “inactive”.
Under SSGLICF stands “inactive”; under SSGNFA, “inactive”; under SSGPLALVL, “inactive”.
Under SSGSPFNCWHSLHCSSRPFK stands “inactive”.
As to SSHIRWHGN, the amyloid nucleation score result is “inactive”.
For SSKMLTLMWMVGPPLSTDGS, the amyloid nucleation score result was “inactive”.
With SSLAGMQEDC, the amyloid nucleation score entry was “inactive”.
SSLIFLFDGKHRVLIYNLSN gave an amyloid nucleation score of 0.482 ± 0.47.
In turn, SSLIWNLSCELLTWLHVRRW displayed an amyloid nucleation score of -1.3 ± 2.5.
Under SSLMRIHLPLVYQ stands “inactive”.
Substance SSLPRPLVFRSLFVWREYIQ returned an amyloid nucleation score of -0.06 ± 0.77.
As for SSLQHSAW, the entry is “inactive”.
Under SSNNQMWTELITYCLRCAWV stands “inactive”; under SSNTTMRINSVRH, “inactive”.
As for SSPRSMASYQRSKIRWVSEF, the entry is “inactive”.
On to SSSLCASWHPYLKWKSYRMF, for which the amyloid nucleation score result is “inactive”.
Turning to SSSLVRCHG, the amyloid nucleation score result is “inactive”.
For SSSRCITLLVSIMVPISATC, the amyloid nucleation score result was “inactive”.
For SSTHIWGVQALGS, the amyloid nucleation score entry was “inactive”.
As for SSVENFLNVCNHLDES, the figure is 0.389 ± 0.25; as for SSWLLLAGKIW, “inactive”.
As for SSWSSRATLMLSSEVKSDMV, the amyloid nucleation score result was “inactive”.
SSYLLRLLIFTSSIRRMFGS: the amyloid nucleation score entry is “inactive”.
Turning to SSYLMFDMLMRYYLNYFMCR, the amyloid nucleation score result is “inactive”.
Substance SSYLNYIFSMTLECIYGC displayed an amyloid nucleation score of -0.272 ± 0.47.
For the substance STASILFIGVKYVM, the amyloid nucleation score amounted to 0.889 ± 0.32.
Under STETYWYSHLIINLVGSWF stands “inactive”; under STIISWWSTVIYFKLI, “inactive”; under STIQSHCYKVVGV, “inactive”.
On to STLGRKVRFTVVLITIGVLT, for which the amyloid nucleation score result is “inactive”.
Under STLRSLCRPSGFGVAI stands “inactive”.
With STLRWLR, the amyloid nucleation score result was “inactive”.
On to STNMFVCDGRTPTNYWLGIR, for which the amyloid nucleation score came to 1.42 ± 0.14.
STPHAHIRSLFMSGYGILTN: the amyloid nucleation score entry was “inactive”.
For the substance STSICIGLLYAFVFEARVLC, the amyloid nucleation score result is “inactive”.
For STVCWHMQRVASTVAL, the amyloid nucleation score entry was “inactive”.
As for STVFDFSTLNFFCKSCSIFW, the figure is 2.22 ± 0.087; as for STVVNSYMNFCACKGSNMAC, 2.7 ± 0.068; as for STWDLNMCLFRYMFKI, “inactive”.
STWMNTDYGDTTV: the amyloid nucleation score was -0.277 ± 0.96.
As to SVCMVFYPVEREKEDQKSVE, the amyloid nucleation score entry is “inactive”.
Turning to SVERILLYGRCCFVRRA, the amyloid nucleation score amounted to 0.403 ± 0.2.
With SVFCMLYLFWLSFLIVLLLM, the amyloid nucleation score was 1.59 ± 0.13.
For the substance SVFDMDSMGTS, the amyloid nucleation score result was “inactive”.
As for SVFQWHPFIESKGNLLSTVK, the entry is “inactive”; as for SVGCPVVRTQFILSPGQTSN, “inactive”; as for SVIIRRGTSQPNRVSWNKVK, “inactive”.
In turn, SVIVTYVWVTAVVQGEYSTK returned an amyloid nucleation score of -0.095 ± 0.55.
As for SVIYIWDG, the figure is 0.425 ± 0.43; as for SVKKESCCD, “inactive”; as for SVKRDFFSLFRFVSNAVSED, “inactive”.
Under SVKTGYVDRPNLRTTFYGCL stands “inactive”.
In the case of SVLWLN, the amyloid nucleation score entry was “inactive”.
Under SVNKAWHSRLIVVLYNRLTG stands 0.082 ± 0.18.
Regarding SVRHSWTMSVFFSDRNALAN, the amyloid nucleation score entry is “inactive”.
In the case of SVRRLGGLLLYCNHFMFD, the amyloid nucleation score result was “inactive”.
For the substance SVRVSIFRGLVRNRWKFDGF, the amyloid nucleation score was found to be 0.666 ± 0.16.
Consider SVSADGGFCIHGQTRPMAGL, for which the amyloid nucleation score came out at 1.21 ± 0.095.
Regarding SVSVLV, the amyloid nucleation score result is “inactive”.
Substance SVTFANTSRHYPLADLSTPT yielded an amyloid nucleation score of 0.162 ± 0.27.
As for SVVDRGASRFKRTVNVSNKA, the amyloid nucleation score entry was “inactive”.
The substance SVVRVCSSCIVDYRMCESK showed an amyloid nucleation score of 0.927 ± 0.14.
In turn, SVYECNLIRDFIDRQGPNLA gave an amyloid nucleation score of 2.25 ± 0.058.
On to SWCCR, for which the amyloid nucleation score was 1.4 ± 0.1.
For SWFWVHHEFVFKALGTLIRT, the amyloid nucleation score result is “inactive”.
Turning to SWGAWIGLWFRTGVLLDESA, the amyloid nucleation score entry was “inactive”.
In the case of SWGIEDSVSYEMETDVVSNW, the amyloid nucleation score result is “inactive”.
As for SWISR, the amyloid nucleation score result was “inactive”.

Values taken from the supplement of paper PMC12042874.
